Laboratory results as given in patent publication US20180011102.

T1: purified CDC45 S386A, O75419
T1 chain: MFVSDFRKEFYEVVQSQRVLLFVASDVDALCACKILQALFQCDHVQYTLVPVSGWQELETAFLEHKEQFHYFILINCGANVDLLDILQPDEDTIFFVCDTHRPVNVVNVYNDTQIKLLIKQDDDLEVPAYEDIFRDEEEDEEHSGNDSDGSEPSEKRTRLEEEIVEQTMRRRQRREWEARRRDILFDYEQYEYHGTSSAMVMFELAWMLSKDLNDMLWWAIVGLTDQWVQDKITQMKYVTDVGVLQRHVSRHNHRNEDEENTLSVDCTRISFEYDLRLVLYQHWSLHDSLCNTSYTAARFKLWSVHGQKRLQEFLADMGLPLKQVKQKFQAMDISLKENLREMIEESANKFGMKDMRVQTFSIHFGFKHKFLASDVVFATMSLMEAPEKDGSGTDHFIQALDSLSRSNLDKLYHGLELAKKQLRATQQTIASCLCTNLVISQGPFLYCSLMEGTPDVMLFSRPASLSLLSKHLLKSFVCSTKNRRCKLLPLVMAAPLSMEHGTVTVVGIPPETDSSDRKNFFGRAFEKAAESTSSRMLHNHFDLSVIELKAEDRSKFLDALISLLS

T2: purified wild-type CDC45, O75419
T2 chain: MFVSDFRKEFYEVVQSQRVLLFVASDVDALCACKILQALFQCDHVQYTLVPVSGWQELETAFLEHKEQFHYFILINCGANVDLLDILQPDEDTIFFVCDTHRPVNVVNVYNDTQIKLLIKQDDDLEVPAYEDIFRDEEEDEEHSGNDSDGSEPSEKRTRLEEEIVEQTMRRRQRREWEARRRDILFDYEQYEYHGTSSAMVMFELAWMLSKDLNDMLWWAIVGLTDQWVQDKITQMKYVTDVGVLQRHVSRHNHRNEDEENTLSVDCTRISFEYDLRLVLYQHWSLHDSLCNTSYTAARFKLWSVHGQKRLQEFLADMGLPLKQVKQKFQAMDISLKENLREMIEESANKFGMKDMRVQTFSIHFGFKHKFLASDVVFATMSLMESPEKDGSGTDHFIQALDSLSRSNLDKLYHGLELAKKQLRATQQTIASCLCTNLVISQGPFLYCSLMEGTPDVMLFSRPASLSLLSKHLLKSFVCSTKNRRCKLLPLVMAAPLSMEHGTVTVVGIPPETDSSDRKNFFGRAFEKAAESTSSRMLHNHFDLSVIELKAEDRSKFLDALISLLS


Legend:
[1] = molecular target: T1, purified CDC45 S386A, O75419
[2] = molecular target: purified Beclin-1 S30A mutant, Q14457
[3] = molecular target: purified PDHK1 T338A (pE-SUMO PDHK1 T338A), Q15118
[4] = molecular target: purified wild-type Beclin-1, Q14457
[5] = molecular target: T2, purified wild-type CDC45, O75419
[6] = molecular target: purified PDHK1 S337A, Q15118
[7] = molecular target: SUMO-PDHK1 (wild type), bacterially purified, Q15118
Sequence of SUMO-PDHK1 (wild type), bacterially purified, Q15118 (Q15118 whole entry, looked up): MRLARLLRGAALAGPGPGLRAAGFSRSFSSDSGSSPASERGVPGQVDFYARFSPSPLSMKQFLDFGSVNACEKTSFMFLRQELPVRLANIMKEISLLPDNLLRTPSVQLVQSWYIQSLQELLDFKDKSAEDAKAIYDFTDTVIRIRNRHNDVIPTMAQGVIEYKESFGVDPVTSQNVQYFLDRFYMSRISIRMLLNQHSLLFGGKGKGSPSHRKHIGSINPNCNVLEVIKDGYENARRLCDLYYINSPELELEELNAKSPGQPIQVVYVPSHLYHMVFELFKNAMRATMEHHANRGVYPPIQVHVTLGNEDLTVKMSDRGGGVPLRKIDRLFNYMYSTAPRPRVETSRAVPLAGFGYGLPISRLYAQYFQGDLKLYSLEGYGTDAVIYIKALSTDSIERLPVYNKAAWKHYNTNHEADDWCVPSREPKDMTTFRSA

Sequence of purified PDHK1 S337A, Q15118 (Q15118 whole entry S337A): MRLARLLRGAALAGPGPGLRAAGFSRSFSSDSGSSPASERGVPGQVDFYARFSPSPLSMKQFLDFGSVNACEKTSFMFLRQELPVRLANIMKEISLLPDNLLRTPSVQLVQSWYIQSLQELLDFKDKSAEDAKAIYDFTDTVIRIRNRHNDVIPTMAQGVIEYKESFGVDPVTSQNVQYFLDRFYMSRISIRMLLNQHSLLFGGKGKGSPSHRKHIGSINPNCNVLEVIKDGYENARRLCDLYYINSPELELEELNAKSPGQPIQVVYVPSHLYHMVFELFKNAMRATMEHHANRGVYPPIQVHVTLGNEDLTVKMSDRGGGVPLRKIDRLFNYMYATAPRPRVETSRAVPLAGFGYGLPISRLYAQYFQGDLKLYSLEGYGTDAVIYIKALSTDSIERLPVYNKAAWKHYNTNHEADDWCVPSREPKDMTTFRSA
Sequence of purified Beclin-1 S30A mutant, Q14457 (Q14457 whole entry S30A): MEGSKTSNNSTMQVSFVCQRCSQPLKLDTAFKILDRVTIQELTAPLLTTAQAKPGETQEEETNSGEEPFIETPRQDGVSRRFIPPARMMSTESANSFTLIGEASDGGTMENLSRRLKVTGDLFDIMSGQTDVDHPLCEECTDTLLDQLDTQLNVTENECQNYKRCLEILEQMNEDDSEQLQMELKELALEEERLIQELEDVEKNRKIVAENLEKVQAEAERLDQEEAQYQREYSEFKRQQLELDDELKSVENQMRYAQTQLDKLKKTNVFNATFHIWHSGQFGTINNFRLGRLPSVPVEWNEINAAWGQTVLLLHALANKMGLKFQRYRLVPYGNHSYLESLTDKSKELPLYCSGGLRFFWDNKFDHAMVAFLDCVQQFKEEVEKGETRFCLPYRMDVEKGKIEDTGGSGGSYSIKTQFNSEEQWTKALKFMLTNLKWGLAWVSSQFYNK
Sequence of purified PDHK1 T338A (pE-SUMO PDHK1 T338A), Q15118 (Q15118 whole entry T338A): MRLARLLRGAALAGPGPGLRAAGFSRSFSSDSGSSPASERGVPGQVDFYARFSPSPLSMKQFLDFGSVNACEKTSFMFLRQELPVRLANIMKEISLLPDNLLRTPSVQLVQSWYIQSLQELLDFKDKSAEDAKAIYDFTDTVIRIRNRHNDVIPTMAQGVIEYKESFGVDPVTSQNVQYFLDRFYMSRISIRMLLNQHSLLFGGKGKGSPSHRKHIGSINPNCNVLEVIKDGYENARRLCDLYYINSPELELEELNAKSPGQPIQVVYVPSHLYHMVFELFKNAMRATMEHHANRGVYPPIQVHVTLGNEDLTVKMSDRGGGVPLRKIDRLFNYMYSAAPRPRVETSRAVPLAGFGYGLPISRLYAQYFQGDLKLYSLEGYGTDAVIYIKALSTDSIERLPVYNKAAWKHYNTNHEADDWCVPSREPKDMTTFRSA
Sequence of purified wild-type Beclin-1, Q14457 (Q14457 whole entry, looked up): as the sequence (Q14457 whole entry S30A) above, with A30S counted along it

Row | Protein | in vitro phosphorylation with [γ32P]-ATP, autoradiography and Western blot [1] | in vitro phosphorylation with [γ32P]-ATP, autoradiography and Western blot [2] | in vitro phosphorylation with [γ32P]-ATP, autoradiography and anti-phospho-PDHK1 T338 antibody [3] | in vitro phosphorylation with [γ32P]-ATP, autoradiography and Western blot [4] | in vitro phosphorylation with [γ32P]-ATP, autoradiography and Western blot [5] | in vitro phosphorylation with [γ32P]ATP, autoradiography [6] | in vitro phosphorylation with [γ32P]-ATP, autoradiography and anti-phospho-PDHK1 T338 antibody [7]
1 | His-PGK1 (wild type), bacterially purified, not phosphorylated (protein) MSLSNKLTLDKLDVKGKRVVMRVDFNVPMKNNQITNNQRIKAAVPSIKFCLDNGAKSVVLMSHLGRPDGVPMPDKYSLEPVAVELKSLLGKDVLFLKDCVGPEVEKACANPAAGSVILLENLRFHVEEEGKGKDASGNKVKAEPAKIEAFRASLSKLGDVYVNDAFGTAHRAHSSMVGVNLPQKAGGFLMKKELNYFAKALESPERPFLAILGGAKVADKIQLINNMLDKVNEMIIGGGMAFTFLKVLNNMEIGTSLFDEEGAKIVKDLMSKAEKNGVKITLPVDFVTADKFDENAKTGQATVASGIPAGWMGLDCGPESSKKYAEAVTRAKQIVWNGPVGVFEWEAFARGTKALMDEVVKATSRGCITIIGGGDTATCCAKWNTEDKVSHVSTGGGASLELLEGKVLPGVDALSNI | Purified wild-type PGK1 but not PGK1 kinase-dead (KD) mutant phosphorylated purified wild-type CDC45, but not CDC45 S386A | Beclin-1 S30A mutant was largely resistant to phosphorylation by PGK1 | WT PGK1, but not a PGK1 T378P kinase-dead mutant, was able to phosphorylate WT PDHK1, but not PDHK1 T338A | Purified PGK1 phosphorylated purified wild-type Beclin-1 | Purified wild-type PGK1 but not PGK1 kinase-dead (KD) mutant phosphorylated purified wild-type CDC45, but not CDC45 S386A | mutation of the adjacent PDHK1 S337A had no effect on PGK1-mediated PDHK1 phosphorylation | WT PGK1, but not a PGK1 T378P kinase-dead mutant, was able to phosphorylate WT PDHK1, but not PDHK1 T338A
2 | purified PGK1 T378P kinase-dead mutant (protein) MSLSNKLTLDKLDVKGKRVVMRVDFNVPMKNNQITNNQRIKAAVPSIKFCLDNGAKSVVLMSHLGRPDGVPMPDKYSLEPVAVELKSLLGKDVLFLKDCVGPEVEKACANPAAGSVILLENLRFHVEEEGKGKDASGNKVKAEPAKIEAFRASLSKLGDVYVNDAFGTAHRAHSSMVGVNLPQKAGGFLMKKELNYFAKALESPERPFLAILGGAKVADKIQLINNMLDKVNEMIIGGGMAFTFLKVLNNMEIGTSLFDEEGAKIVKDLMSKAEKNGVKITLPVDFVTADKFDENAKTGQATVASGIPAGWMGLDCGPESSKKYAEAVTRAKQIVWNGPVGVFEWEAFARGTKALMDEVVKATSRGCITIIGGGDTAPCCAKWNTEDKVSHVSTGGGASLELLEGKVLPGVDALSNI |  |  |  |  | Purified wild-type PGK1 but not PGK1 kinase-dead (KD) mutant phosphorylated purified wild-type CDC45, but not CDC45 S386A |  | WT PGK1, but not a PGK1 T378P kinase-dead mutant, was able to phosphorylate WT PDHK1, but not PDHK1 T338A
